Measurements from US20240109945A1 (published 2024).
No end group written: not given here. M3N2 = N-glycan

T1: biotinylated N-glycopeptide A3Man (AVSHN(M3N2)ASLE) (also: biotinylated, position not given here)
T1 peptide: AVSHN(M3N2)ASLE


Target: T1, biotinylated N-glycopeptide A3Man …
Test: BLI

| Binder | Kd |
| --- | --- |
| Variant Fbs1-7 (designed binder) MGSSHHHHHHHHSSGENLYFQSHMASQQEGLVPEGSADEERDHWQQFYFLSKRRRNLLRNPCGEEDLEGWSDVEHGGDGWRVERLPGDGGVEFTQDDSVKKYFASSYRWCRKAQVIDLQAEGYWEELLDTTQPAIVVKDWYSGRTDAGSLYELTVRLLSENEDVLAEFATGQVAVPEDGSWMEISHTFIDYGPGVRFVRFEHGGQDSVYWKGWFGARVTNSSVWVEP | 860 nM |
| Variant Fbs1-8 (designed binder) MGSSHHHHHHHHSSGENLYFQSHMASQQEGLVPEGSADEERDHWQQFYFLSKRRRNLLRNPCGEEDLEGWSDVEHGGDGWRVRRLPGDGGVEFTQDDSVKKYFASSYRWCRKAQVIDLQAEGYWEELLDTTQPAIVVKDWYSGRTDAGSLYELTVRLLSENEDVLAEFATGQVAVPEDGSWMEISHTFIDYGPGVRFVRFEHGGQDSVYWKGWFGARVTNSSVWVEP | 1140 nM |
| Variant Fbs1-3 (designed binder) MGSSHHHHHHHHSSGENLYFQSHMASQQEGLVPEGSADEERDHWQQFYFLSKRRRNLLRNPCGEEDLEGWSDVEHGGDGWRVEELPGDGGVEFTQDDSVKKYFASSYRWCRKAQVIDLQAEGYWEELLDTTQPAIVVKDWYSGRTDAGSLYELTVRLLSENEDVLAEFATGQVAVPEDGSWMEISHTFIDYGPGVRFVRFEHGGQDSVYWKGWFGARVTNSSVWVEP | 880 nM |
| Variant Fbs1-1 (designed binder) MGSSHHHHHHHHSSGENLYFQSHMASQQEGLVPEGSADEERDHWQQFYFLSKRRRNLLRNPCGEEDLEGWSDVEHGGDGWRVEELPGDNGVEFTQDDSVKKYFASSFEWCRKAQVIDLQAEGYWEELLDTTQPAIVVKDWYSGRTDAGSLYELTVRLLSENEDVLAEFATGQVAVPEDGSWMEISHTFIDYGPGVRFVRFEHGGQDSVYWKGWFGARVTNSSVWVEP | 4300 nM |

Next, values leading:

| Kd | Binder |
| --- | --- |
| 610 nM | Variant Fbs1-2 (designed binder) MGSSHHHHHHHHSSGENLYFQSHMASQQEGLVPEGSADEERDHWQQFYFLSKRRRNLLRNPCGEEDLEGWSDVEHGGDGWRVEELPGDNGVEFTQDDSVKKYFASSYRWCRKAQVIDLQAEGYWEELLDTTQPAIVVKDWYSGRTDAGSLYELTVRLLSENEDVLAEFATGQVAVPEDGSWMEISHTFIDYGPGVRFVRFEHGGQDSVYWKGWFGARVTNSSVWVEP |
| 200 nM | Variant Fbs1-6 (designed binder) MGSSHHHHHHHHSSGENLYFQSHMASQQEGLVPEGSADEERDHWQQFYFLSKRRRNLLRNPCGEEDLEGWSDVEHGGDGWRVRELPGDGGVEFTQDDSVKKYFASSYRWCRKAQVIDLQAEGYWEELLDTTQPAIVVKDWYSGRTDAGSLYELTVRLLSENEDVLAEFATGQVAVPEDGSWMEISHTFIDYGPGVRFVRFEHGGQDSVYWKGWFGARVTNSSVWVEP |

Each binder was assayed against G2PB (assay: BLI).

| Binder | Kd |
| --- | --- |
| Fbs1-1 (WT) (designed binder) MGSSHHHHHHHHSSGENLYFQSHMASQQEGLVPEGSADEERDHWQQFYFLSKRRRNLLRNPCGEEDLEGWSDVEHGGDGWRVEELPGDNGVEFTQDDSVKKYFASSFEWCRKAQVIDLQAEGYWEELLDTTQPAIVVKDWYSGRTDAGSLYELTVRLLSENEDVLAEFATGQVAVPEDGSWMEISHTFIDYGPGVRFVRFEHGGQDSVYWKGWFGARVTNSSVWVEP | 27500 nM |
| Fbs1-6 (E153R.N159G.F177Y.E178R) (designed binder) MGSSHHHHHHHHSSGENLYFQSHMASQQEGLVPEGSADEERDHWQQFYFLSKRRRNLLRNPCGEEDLEGWSDVEHGGDGWRVRELPGDGGVEFTQDDSVKKYFASSYRWCRKAQVIDLQAEGYWEELLDTTQPAIVVKDWYSGRTDAGSLYELTVRLLSENEDVLAEFATGQVAVPEDGSWMEISHTFIDYGPGVRFVRFEHGGQDSVYWKGWFGARVTNSSVWVEP | 790 nM |
| Fbs1-8 (E153R.E154R.N159G.F177Y.E178R) (designed binder) MGSSHHHHHHHHSSGENLYFQSHMASQQEGLVPEGSADEERDHWQQFYFLSKRRRNLLRNPCGEEDLEGWSDVEHGGDGWRVRRLPGDGGVEFTQDDSVKKYFASSYRWCRKAQVIDLQAEGYWEELLDTTQPAIVVKDWYSGRTDAGSLYELTVRLLSENEDVLAEFATGQVAVPEDGSWMEISHTFIDYGPGVRFVRFEHGGQDSVYWKGWFGARVTNSSVWVEP | 1190 nM |

Further lines, results first:

| Kd | Binder |
| --- | --- |
| 540 nM | Fbs1-3 (N159G.F177Y.E178R) (designed binder) MGSSHHHHHHHHSSGENLYFQSHMASQQEGLVPEGSADEERDHWQQFYFLSKRRRNLLRNPCGEEDLEGWSDVEHGGDGWRVEELPGDGGVEFTQDDSVKKYFASSYRWCRKAQVIDLQAEGYWEELLDTTQPAIVVKDWYSGRTDAGSLYELTVRLLSENEDVLAEFATGQVAVPEDGSWMEISHTFIDYGPGVRFVRFEHGGQDSVYWKGWFGARVTNSSVWVEP |
| 1450 nM | Fbs1-7 (E154R.N159G.F177Y.E178R) (designed binder) MGSSHHHHHHHHSSGENLYFQSHMASQQEGLVPEGSADEERDHWQQFYFLSKRRRNLLRNPCGEEDLEGWSDVEHGGDGWRVERLPGDGGVEFTQDDSVKKYFASSYRWCRKAQVIDLQAEGYWEELLDTTQPAIVVKDWYSGRTDAGSLYELTVRLLSENEDVLAEFATGQVAVPEDGSWMEISHTFIDYGPGVRFVRFEHGGQDSVYWKGWFGARVTNSSVWVEP |
| 26800 nM | Fbs1-2 (F177Y.E178R) (designed binder) MGSSHHHHHHHHSSGENLYFQSHMASQQEGLVPEGSADEERDHWQQFYFLSKRRRNLLRNPCGEEDLEGWSDVEHGGDGWRVEELPGDNGVEFTQDDSVKKYFASSYRWCRKAQVIDLQAEGYWEELLDTTQPAIVVKDWYSGRTDAGSLYELTVRLLSENEDVLAEFATGQVAVPEDGSWMEISHTFIDYGPGVRFVRFEHGGQDSVYWKGWFGARVTNSSVWVEP |
